The subject of this assay is hPBMC on cytokine-stimulated HDBEC monolayers. The assay can be described thus: Human PBMC static adhesion / transendothelial migration assay. It is filed as cell-based. The settings on record: co-treatment plus TNF-α. As to the method: FIG. 10: Human dermal blood endothelial cells (HDBEC) were treated with: IL-17 vehicle (Ctrl), IL-17 or FM-0410 (100 ng/ml), alone or in combination with TNF-α (100 U/ml) for 24 h. Cells were washed, gated in their totality and singlet before the identification of IL-17Rs (RA and RC) (A, B), ICAM (C) and VCAM (D) expression. Histogram values (expressed as MIF) indicate the total positive cells (A-D). In (E) are shown phase-contrast micrographs of confluent monolayers of untreated or treated (as reported before) HDBEC. Total adhesion (expressed as INT/mm^2, F) and % of transmigration (G) are calculated with Image Pro programme (DataCell, Finchampstead). Inflammatory supernatants from all experimental conditions were assayed by Elisa for IL-6 (H) expressed in pg/ml. Data were presented as means±S.D. of n=3 healthy donors. […]
Human PBMC transendothelial migration assay: Prior to beginning the assay, HDBEC monolayers were washed with 37° C. medium 199 (Thermo Fisher Scientific) supplemented with 0.15% w/v BSA (MilliporeSigma) to remove any residual cytokines. hPBMC (1×10^6) were co-cultured with cytokine-stimulated HDBEC monolayers at 37° C. for 20 min. […] Total hPBMC adhesion and mean percentage transmigration were calculated for each well.

From patent US20260035452A1 (THE UNIVERSITY OF BIRMINGHAM, priority 2022, published 2026) come the findings set out here.

B1: IL-17: recombinant mouse IL-17 purchased from R&D System; full-length cytokine used as comparator and stimulus (protein, UniProt Q62386 26-158, looked up)
Interleukin-17A: AAIIPQSSACPNTEAKDFLQNVKVNLKVFNSLGAKVSSRRPSDYLNRSTSPWTLHRNEDPDRYPSVIWEAQCRHQRCVNAEGKLDHHMNSVLIQQEILVLKREPESCPFTFRVEKMLVGVGCTCVASIVRQAA
Turning to B1, the “total number of adhered hPBMC” value is listed as “significant increase” and the “transmigrated hPBMC” value is reported as “significant increase”.
